Experimental data: patent US20160115223A1

Assays:
Aβ42 fibers [1] = biological target: Aβ42 fibers (UniProt P05067); experiment: cell-based or functional assay
Aβ42 fibers [2] = biological target: Aβ42 fibers (UniProt P05067); experiment: ELISA, Aβ42 fibers on plate; IC50(variant)/IC50(SEQ ID NO: 3)

Aβ42 fibers, sequence (P05067 672-713 limits assumed): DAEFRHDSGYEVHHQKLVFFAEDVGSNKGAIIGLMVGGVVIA

Row | Substance | EC50, cellulose acetate filter retardation assay (disaggregation) (Aβ42 fibers [1]) | IC50 Relative to SEQ ID NO: 3 (Aβ42 fibers [2])
1 | N1-N2-hIgG1-Fc fusion protein (SEQ ID NO:1) (from UniProt O34714 1-385) | 100 nM | –
2 | N1-N2-human IgG Fc fusion protein of SEQ ID NO: 3 with D178G (from UniProt P69168 19-274) | – | 0.2
3 | N1-N2-human IgG Fc fusion protein of SEQ ID NO: 3 with D178Q | – | 0.6
4 | N1-N2-human IgG Fc fusion protein of SEQ ID NO: 3 with D178S | – | 0.3
5 | N1-N2-human IgG Fc fusion protein of SEQ ID NO: 3 with D178T | – | 0.4
6 | N1-N2-human IgG Fc fusion protein of SEQ ID NO: 3 with F141D | – | 0.2
7 | N1-N2-human IgG Fc fusion protein of SEQ ID NO: 3 with F141E (from UniProt P69168 19-274) | – | 0.2
8 | N1-N2-human IgG Fc fusion protein of SEQ ID NO: 3 with G48H | – | 1.8
9 | N1-N2-human IgG Fc fusion protein of SEQ ID NO: 3 with G48K (from UniProt P69168 19-274) | – | 1.1
10 | N1-N2-human IgG Fc fusion protein of SEQ ID NO: 3 with G48R (from UniProt P69168 19-274) | – | 1.9
11 | N1-N2-human IgG Fc fusion protein of SEQ ID NO: 3 with G48S | – | 1.2
12 | N1-N2-human IgG Fc fusion protein of SEQ ID NO: 3 with G48T | – | 1
13 | N1-N2-human IgG Fc fusion protein of SEQ ID NO: 3 with M135A (from UniProt P69168 19-274) | – | 0.4
14 | N1-N2-human IgG Fc fusion protein of SEQ ID NO: 3 with M135D (from UniProt P69168 19-274) | – | 0.5
15 | N1-N2-human IgG Fc fusion protein of SEQ ID NO: 3 with M135G | – | 0.2
16 | N1-N2-human IgG Fc fusion protein of SEQ ID NO: 3 with M135H (from UniProt P69168 19-274) | – | 0.1
17 | N1-N2-human IgG Fc fusion protein of SEQ ID NO: 3 with M135N (from UniProt P69168 19-274) | – | 0.3
18 | N1-N2-human IgG Fc fusion protein of SEQ ID NO: 3 with M135R (from UniProt P69168 19-274) | – | 0.1
19 | N1-N2-human IgG Fc fusion protein of SEQ ID NO: 3 with M176G | – | 0.3
20 | N1-N2-human IgG Fc fusion protein of SEQ ID NO: 3 with M176H | – | 0.4
21 | N1-N2-human IgG Fc fusion protein of SEQ ID NO: 3 with M176K (from UniProt P69168 19-274) | – | 0.2
22 | N1-N2-human IgG Fc fusion protein of SEQ ID NO: 3 with M176N (from UniProt P69168 19-274) | – | 0.5
23 | N1-N2-human IgG Fc fusion protein of SEQ ID NO: 3 with M176R | – | 0.2

Row | Substance | EC50, cellulose acetate filter retardation assay (disaggregation) (Aβ42 fibers [1]) | IC50 Relative to SEQ ID NO: 3 (Aβ42 fibers [2])
24 | N1-N2-human IgG Fc fusion protein of SEQ ID NO: 3 with R140A | – | 0.2
25 | N1-N2-human IgG Fc fusion protein of SEQ ID NO: 3 with R140D | – | 0.3
26 | N1-N2-human IgG Fc fusion protein of SEQ ID NO: 3 with R140E | – | 0.3
27 | N1-N2-human IgG Fc fusion protein of SEQ ID NO: 3 with R140G (from UniProt P69168 19-274) | – | 0.2
28 | N1-N2-human IgG Fc fusion protein of SEQ ID NO: 3 with R140H | – | 0.2
29 | N1-N2-human IgG Fc fusion protein of SEQ ID NO: 3 with S173G (from UniProt P69168 19-274) | – | 0.2
30 | N1-N2-human IgG Fc fusion protein of SEQ ID NO: 3 with S173P | – | 0.4
31 | N1-N2-human IgG Fc fusion protein of SEQ ID NO: 3 with T51G (from UniProt P69168 19-274) | – | 0.8
32 | N1-N2-human IgG Fc fusion protein of SEQ ID NO: 3 with T51H (from UniProt P69168 19-274) | – | 1.5
33 | N1-N2-human IgG Fc fusion protein of SEQ ID NO: 3 with T51K | – | 2.5
34 | N1-N2-human IgG Fc fusion protein of SEQ ID NO: 3 with T51N | – | 0.5
35 | N1-N2-human IgG Fc fusion protein of SEQ ID NO: 3 with T51P | – | 0.2
36 | N1-N2-human IgG Fc fusion protein of SEQ ID NO: 3 with T51Q | – | 0.8
37 | N1-N2-human IgG Fc fusion protein of SEQ ID NO: 3 with T51R | – | 2
38 | N1-N2-human IgG Fc fusion protein of SEQ ID NO: 3 with T56G | – | 0.1
39 | N1-N2-human IgG Fc fusion protein of SEQ ID NO: 3 with T56H | – | 0.77
40 | N1-N2-human IgG Fc fusion protein of SEQ ID NO: 3 with T56R (from UniProt P69168 19-274) | – | 0.8
41 | N1-N2-human IgG Fc fusion protein of SEQ ID NO: 3 with W181G | – | 0.5
42 | N1-N2-human IgG Fc fusion protein of SEQ ID NO: 3 with W181H | – | 0.87
43 | N1-N2-human IgG Fc fusion protein of SEQ ID NO: 3 with W181K | – | 0.3
44 | N1-N2-human IgG Fc fusion protein of SEQ ID NO: 3 with Y54H | – | 0.3
45 | N1-N2-human IgG Fc fusion protein of SEQ ID NO: 3 with Y54P | – | 0.07
